# Source: the DeepSol protein solubility set
# Assay: soluble on expression in E. coli; label from the status in PepcDB or PDB records
row,Sequence,soluble on expression in E. coli
1,NYKREIKQVENYLSARRESGHFIGKENIDIYYEKYVIPNSKNSIVISHGFRESMVKYNETIYYFLKNGYSVYGLEHRGHARSGRLGKDSTQTSVDNFDYYVDDFKKYVDTIVEPDNRGKNLFLYAHSMGGAIGGLFLERYPKYFKAAVLSSPMFEVDTGRYPEFLSRAVASVFNFVNLGDTYAPGHHEYSCESDFENSCTTSNIRYDYYLDKTNKSRKIENGGASFKWVKESLKATDEVTDGKNASKVTIPVLLFQAENDDIVRPGGQDKFAKEAKKCKLIVIKNSKHEIYREKDSIMVPYFNKVFTFLNNNK,not soluble
2,MTDEVILANATLVLRGETVTGSLHIKGETIAGIDQGAHVPAGAVDCEGDFVSPGLVELHTDNLERHIQPRPKVDWPHAAAILAHDAELAGTGITTVFDAMRVGSIPSGAGRYLQYARNLSRELWQLREASALKISHFLHLRAEVCSETLVEELDEFAPEDRVGLVSLMDHTPGQRQFRDMTKLEAYMKGKHAMSDDTFLQHVSQLKGLRDRYGDRHEIETVKAARRLGSVLASHDDTTAEQVAVSAGHGIRLAEFPTTIEAAEACHAHGIKVIMGAPNLIRGGSHSGNVAAADLAERGLLDILSSDYVPSALLLSAVRLGALWGDMARGMATVTRTPAQAVGLDDRGEIAPGLRADLIRFRMSQDVPALQSVWSRGRRVA,not soluble
3,MSKSEETLSSIMEASYRLFARHGITKTTYSMIAEEVGIAKPSIYYYFKSKDALIECIFTELCAAMQFSSFFHTEEFTKENFIEKCIEIGFKIIDEQQNDPYFNRVLQEYLLLSSRNDMYKDRLLTVQTEYLQGFESLLTKANELQLIENKNLVSKAHMLALVLDNVGNFMMLHVDIDYRQIWMEAVNIIFERRD,not soluble
4,MGSDKIHHHHHHMTESEKQKLGKTLWAIADQLRGAMNADDFRDYMLAFLFLRYLSDNYEAAAQKELGTDYPDLPSDVLRQTGVNTPLQAWYEENLDDVSEFEKQMRRKVHYVIEPQYLWGNIAEMARTQDDELLHTLQKGFKYIEEESFASTFRGLFSEINLASDKLGKTYTERNARLCKIIAEIAKGLGQFSTDSDTLGDAYEYLIGQFAAGSGKKAGEFYTPQRISDILSAIVTLDSQEPATGKRSHLDSVFDFACGSGSLLLNVRRLMGPHGIGKIYGQEKNITTYNLARMNMLLHGVKDSEFEIFHGDTLLNEWDMLRETNPAKMPKFDAVVANPPFSYRWEPSEALGEDVRFKNYGLAPKSAADFAFLLHGFHFLKQDGVMAIILPHGVLFRGGAEARIRTKLLKDGHIDTVIGLPANLFFSTGIPVCILVLKKCKKPDDVLFINAAEHFERGKRQNQLLPEHIDKIIDTYRYRKEEPRYSRRVSMEEIEKNDFNLNISRYVSTAITEEEVDLNAVIGQLKAIEQEIYQAKSKHNEFLKELGLPLLP,not soluble
5,MRGFSGQPLSDDDNYRIEKTQRNTIPERLHFSRERNMPIASIFGTRGYFVFSSEQSYDKFKQTNFNISTLDADGVGVPLFHIVQSYNVIGKITRSSPDFYIYKYVLQGVQDPPLYSDCKVICQDKVFRLCKILYCEIYAHQGFFETKYDFFYPSKTQPVKKYQIIKQSNMRDLYSTLDGMRFRWHVKFYSDHFRLMFLDEDRLNYSNSNQKERQKPDQGKSKAPDFVIGHYTRTFSDILPRSTSKCSNLIIGEHSKPDSLGITTVPDLTQEFACQGALIHYLLHIERERK,soluble
6,MAFGLPDTAALNKAADQKTSVSMPVRGRLVMNDSGILDVQLVKTNTAGAVKVARAVLDKETGYWGYTLPAVADVPAQTIFVSPADALGANGPLTLSGPVPLPERILHTGDQISAPQATDKTVTPVADDLDFDDIILVFPPESGLKPLYVMYRSPRNMPGTVSGKGLEHHHHHH,soluble
7,MGHHHHHHSHMEFIVDSVDKTMHIGRQLGSLVNKGDILCLTGDLGTGKTHISKGIAEGLGIDEHITSPTFNIVNEYHSGRLTLYHFDVYRVNDPDEIEAIGFDEYIFGDGVSLIEWANYIEELIPEEYIHIKIEKLPDMGENFRKITINGYGDRYNYIKEIKE,not soluble
8,MGSDKIHHHHHHMSLRDKIEELKKIEKEIEQGGGPEKVEKQHRAGKLTAWERLELLLDPGTFVEIDKFVEHRNTYFGLDKVKLPRDGVITGVGEINGRKVAVFSQDFTVMGGSLGEMHAKKIVKLLDLALKMGIPVIGINDSGGARIQEGVDALAGYGEIFLRNTLASGVVPQITVIAGPCAGGAVYSPALTDFIVMVDQTARMFITGPNVIKAVTGEEISQEDLGGAMVHNQKSGNAHFLADNDEKAMSLVRTLLSYLPSNNAEEPPVEDPDTSLETPEDILDILPDNPNKGYDVRDVIKRVVDHGEFFEVQPYFAKNIVIGFARIQGKTVGIVANQPSVLAGVLDIDSSDKAARFIRFLDAFNIPILTFVDTPGYLPGVAQEHGGIIRHGAKLLYAYSEATVPKITVILRKAYGGAYIAMGSKHLGADMVLAWPSAEIAVMGPEGAANIIFKREIEASSNPEETRRKLIEEYKQQFANPYIAASRGYVDMVIDPRETRKYIMRALEVCETKVEYRPKKKHGNIPL,soluble
9,MSLDTGVTSVMFVERSLNEIRFWSRIMKEHSFFLRLGFRCEDTQLIEEANQFYRLFEHIEQIAHSYTNETDPEQIKRFNAEVQQAATNIWGFKRKILGLILTCKLPGQNNFPLLVDHTSREADYFRKRLIQLNEGKLDALPDAIIKENVFFLRIMADHAKFIGHLLDPSERKLVDTARNFSNDFDELMYQAIDLESMKPQSQTAPLLDQFLDQNRVSVASLRDFKKTARDLIEQCKIKSIIHPLLADHVFREADRFLEIIDMYDVHLTNIQSQPREGHHHHHH,soluble
10,MEINVDQINLMTKKGLRGDLKNFESVLDFLEKYGNATIVKYGMYSLVFQIAMNKFIDISKECEECGGKCCQIGYPVPVYGFDYEELRNKLSMEDLKKLEKVDSNLFLLRRPCKFQKGWYCSIHKFKPYACLSYPFATEDEQRDAINSYDGKGIPDLEHHHHHH,not soluble
11,KSIYLQSPYFIPDQSYINALKMAANSGVEVNLMIPCKPDHPFVYWATFSNAADLLDSGVNIYTYQNGFIHSKILMIDDEISSIGSANMDFRSFELNFEVNAFIYDEDIAKQLRQAFEKDIEQSKLLTKEVYDKR,not soluble
12,MKTVRCSILGFGAIGQGVAEVLLMKKEYLESIGLEIIVVAVVDSRGATINPEGVDLADCLARKRTTGTVAIEKITGVEVIKSIDHDLVIETTPTNIVTGGAGLQNMFAAFEIGKDVITSNKGPLTLKYRELMEAAKVAGSSFRFEATVGGSMPIINLANEVLAGNRLKSIKGILNGTCNYILTRMLEERASYKDILAESMELGIAETDPTYDVDGIDTACKLVILANAIFGLNATYKDVEVTGITKITPEALEMAYERGHVIKLIGEVSRERIHVAPRLVPINHPLDVRGTLNVASIDTELAGEITVTGKGAGPVETASAILSDLIAIYGNQLEHHHHHH,soluble
13,MGHHHHHHSHAESHLQSSLITASQFFEIWLHFDADGSGYLEGKELQNLIQELQQARKKAGLELSPEMKTFVDQYGQRDDGKIGIVELAHVLPTEENFLLLFRCQQLKSCEEFMKTWRKYDTDHSGFIETEELKNFLKDLLEKANKTVDDTKLAEYTDLMLKLFDSNNDGKLELTEMARLLPVQENFLLKFQGIKMCGKEFNKAFELYDQDGNGYIDENELDALLKDLCEKNKQDLDINNITTYKKNIMALSDGGKLYRTDLALILCAGDN,soluble
14,MGSDKIHHHHHHMAHLPQMKIPATYMRGGTSKGVFFSLTDLPAAAQVAGAARDAILLRVIGSPDPYGKHTDGMGGATSSTSKTVILSKSTQADHDVDYLFGQVSIDKPFVDWSGNCGNLTAAVGSFAISNGLIDPSRVPENGTAIVRIWQANIHKTIIAHVPITNGEVQETGDFELDGVTFPAAEVQVEFLDPADGDGAMFPTGNVVDELNVPGVGTFKATMINAGIPTIFINAADIQYQGTELQDDINNDDKALAMFETIRAYGAVKMGLIKHIDEAVARQHTPKVAFVAPAANYISSSGKAVNTDDIDLVVRALSMGKLHHAMMGTAAVAIGTAAAIPGTLVNLAAGGGELSAVRFGHPSGTLRVGAQAALVQGQWQVKKAIMSRSARVLMEGKVSIPQ,not soluble
15,MSRYGKNLVHYIIVEHDDQRGQKPIDDDDEKNFYYHCSFTFETFFRATAFLLAPAVCAVREVPCRLTRTRYNATEYIEGYGWMISLQQGLGVAEFYRPWPLSVQLQRYTTPSRRSRFAVLTPQRKCHQNEANGQDLSLLILLSRIYPLCSNTSQTRRVAARKGKLS,not soluble
16,MANLGETLKQLRKQRRWTQEQLAEQLNVSRSQISKWENGSLLPDVQSLEKLCQLFNISADFLLGGETRQRELLREVTDMYGTADVHETVLAALDYLLHNQEMSEAMYALAKLPDKKRKHVETMIMTIVKECSELI,not soluble
17,MSLLSKVVTQIKGFLHDSVDKASDDGRTARQLIRDVGENEEKIKEALVESRSQAIISKQKVEDKQSAIALSKKRAAKAVELDKEDLARTILVEKRQQESDLAALQNQQAKFDNIVVTLTSRFNDIQKKRSEMERKADSIDLRSKVAAATEEATKLLDVGNFASYDSASKVFDRLEDNIAKKEAKSQARGEFIDAEKDKQDELVSLDRHGLDESIEDELAALRAMNKKQELEHHHHHH,not soluble
18,MHTIDVIDSHTAGEPTRVVLAGFPDLGDGDLAQCRERFRSDFDHWRSAIACEPRGSDTMVGALLLPPRDPSACTGVIFFNNVGYLGMCGHGTIGVVRTLAELGRIAPGQHRIETPVGTVGVALADDGTVSIDNVESYRHAAGVEVDVPGHGRVRGDVAWGGNWFFITEQAPCALGLAQQRELTAYTEAIRLALEAAGITGEAGGEIDHIEISGVAPDGSGAARNFVLCPGLAYDRSPCGTGTSAKLACLAADGKLAEGERWLQQGILGSAFEGSYRHSGRGIAPRISGHAFITARSQLLIDPADPFAWGIVALEHHHHHH,not soluble
19,MGSDKIHHHHHHMKVLLTRPEGRNQQMADALTQLGIGYHLCPLLEITPSNTPPKASFFSADKLVFISANAVYFAANNLNNHFPMHCEYFAVGEATQMALAEYQVVSQSAPSSQQDSEGLLSLSQLQDVELQKITIVRGEGGRETLAQTLSERGANVDYWQVYQRSKPALDPKSVCQQWQDLGIDTLVLTSGEALANLMELVPKELFAWLRSCHMIVPSHRVQVQAISQGFHRVSNANGASTQAILTALAL,not soluble
20,MADTIEVDGKQFAVDEEGYLSNLNDWVPGVADVMAKQDNLELTEEHWDIINFLREYYEEYQIAPAVRVLTKAVGKKLGKEKGNSKYLYSLFPYGPAKQACRFAGLPKPTGCV,soluble
21,GPGSMSTGAELLSKALQLQHTRCETYRLWDAKFHCALGGALSASDFETAVNNSIIAAFRCVSLSFRELQCLCRDSTDDACRFLCVWIDELQELEQRHYNISVQFAQLVVQHCTALPLHSSTSQTDMCQTAANEEAENSGVENGSKEVQGTADVSENEKSTVANGERNNSSEVICASLHDRQLCELQRIIPLQAQSVLNYVTCRDDFFPSSSDDECEGDQTGGDGCTSNGADSEPGDLLVPFHHKSGVVATYSPGEVKKRCATFNAAVMPLWRSKLRLRQQLQEKMDELQEEITSASSVFP,soluble
22,MGSDKIHHHHHHMTERIRIGISSCLLGNKVRHDGGHKFDSYIVNVLGRYLDFVPVCPEVECGLPTPREPMRLAGDVHSPRLMTSKTWQDKTEQMQTWADSKVRELEGQGLCGFIFKRGSPSSGMERVKVYPFTDPREVKNVGAPVLKGSGLFARTFMEHFPLLPVEEEGRLNDPVLRENFIERLFVVRRWYDLLESGMAPGAVVEFHTRHKLLLLAHSTQKYREMGRLVAAVREYSPEQFRTEYRRLLMEALSVRATAGRHANVQQHIMGYFRRQLTTDEKQELVEIIDRYRNGLVPLIVPVTMLNHYVRKYGDEYLAGQYYLNPHPVELKLRNHI,not soluble
